Values of other authors as cited in paper PMC8033747.

Target: CHMP3 (Homo sapiens) (UniProt Q9Y3E7)
Assay: SPR

Chain of CHMP3 (Homo sapiens) (Q9Y3E7 2-222): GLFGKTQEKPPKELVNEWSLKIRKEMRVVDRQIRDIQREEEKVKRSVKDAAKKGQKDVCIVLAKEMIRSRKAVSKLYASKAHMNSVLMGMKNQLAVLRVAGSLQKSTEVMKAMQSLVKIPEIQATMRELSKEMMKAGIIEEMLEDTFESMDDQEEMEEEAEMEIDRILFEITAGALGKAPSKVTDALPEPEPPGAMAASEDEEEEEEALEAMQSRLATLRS
Chain of CHMP2A (O43633 whole entry): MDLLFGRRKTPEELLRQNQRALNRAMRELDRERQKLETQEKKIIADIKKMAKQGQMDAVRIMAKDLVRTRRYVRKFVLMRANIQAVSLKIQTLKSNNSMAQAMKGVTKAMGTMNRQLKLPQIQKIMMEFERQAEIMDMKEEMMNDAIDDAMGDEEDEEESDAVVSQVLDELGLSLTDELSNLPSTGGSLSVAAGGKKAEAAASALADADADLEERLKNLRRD
Chain of CHMP2B (Q9UQN3 2-213): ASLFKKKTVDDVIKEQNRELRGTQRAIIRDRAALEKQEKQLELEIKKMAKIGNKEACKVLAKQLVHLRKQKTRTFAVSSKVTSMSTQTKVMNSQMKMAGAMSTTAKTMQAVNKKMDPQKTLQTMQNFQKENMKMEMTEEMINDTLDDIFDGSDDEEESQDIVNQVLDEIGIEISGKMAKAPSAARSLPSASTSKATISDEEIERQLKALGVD

Substance: CHMP2B (from UniProt Q9UQN3)
- Kd: 1.4 µM

Substance: CHMP2A (from UniProt O43633)
- Kd: 3.2 µM
